Assay [1] addresses T1, soluble human FcRn (human, UniProt P55899 24-297; P61769 21-119).
T1 construct: extracellular domain;mature; Non-covalent heterodimer secreted by 293 cells, purified on IgG Sepharose; also called shFcRn; soluble FcRn
The assay is described as follows: SPR, shFcRn immobilised, pH 7.4. Here is the method: Measurement of the binding ability of antibody by SPR was performed by immobilizing shFcRn as a ligand onto a Proteon GLC chip (Bio-Rad) and measuring affinity.
The analysis of ligand and analyte was performed using a Proteon GLC chip, and the interaction was analyzed at a pH of 6.0 and a pH of 7.4. Immobilization of the ligand was activated by injecting a 1:1 mixture of 1×EDAC (EDC) and 1× Surfo-NHS for 5 minutes. shFcRn was diluted in 10 mM sodium acetate (pH 4.5) at a concentration of 25 μg/ml and added to the ligand at a flow rate of 30 μl/min for 5 minutes. […] The analyte antibody was allowed to flow on the immobilized chip at a flow rate of 30 μl/min. […] The association time of the analyte antibody was 240 seconds, and the dissociation time was 600 seconds. Regeneration of the chip was performed by injecting 10 mM glycine (pH 2.5) at a flow rate of 100 μl/min for 18 seconds. Based on sensorgrams resulting from six concentrations of the analyte, kinetics analysis was performed using Proteon XPR36 software.

Assay [2] deals with T2, rat FcRn on Rat-2 cells (rat, UniProt P13599 23-366; P07151 21-119).
T2 construct: whole, on cells
T2 sequence (looked up): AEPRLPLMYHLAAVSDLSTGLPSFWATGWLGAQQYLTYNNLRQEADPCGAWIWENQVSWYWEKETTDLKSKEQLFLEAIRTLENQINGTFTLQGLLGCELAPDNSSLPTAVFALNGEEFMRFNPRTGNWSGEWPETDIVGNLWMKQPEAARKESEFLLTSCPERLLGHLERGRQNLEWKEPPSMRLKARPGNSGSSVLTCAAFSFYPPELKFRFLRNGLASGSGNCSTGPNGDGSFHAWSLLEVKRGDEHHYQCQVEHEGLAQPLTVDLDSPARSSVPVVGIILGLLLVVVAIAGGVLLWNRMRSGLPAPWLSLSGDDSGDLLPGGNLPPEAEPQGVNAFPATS
T2 sequence (b2m, looked up): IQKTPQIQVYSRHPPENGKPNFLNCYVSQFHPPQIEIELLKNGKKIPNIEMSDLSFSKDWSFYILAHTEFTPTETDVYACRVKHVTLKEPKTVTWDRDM
The assay can be described thus: FACS on rat FcRn-expressing Rat-2 cells at pH 6.0 and pH 7.4, FITC anti-human IgG goat antibody; MFI relative to hIgG. On the procedure: Rat-2 (KCTC #AC28203), rat fibroblasts stably expressing rat FcRn, were cultured in 10% FBS DMEM medium, and then detached from the culture plate by trypsin treatment. The cells were washed three times with cold binding buffer (PBS pH 6.0, 10 mM EDTA), and then diluted in binding buffer at a concentration of 10⁵ cells/ml. 100 μl of the cell dilution was dispensed into each 1.5-ml tube in such a manner that each tube contained 10⁴ cells, and 1 μl of HL161 antibody (1 mg/ml) was added to the dispensed cells. Next, the cells were incubated on ice. As control antibodies, 1 μl of each of mouse 1G3 antibody and human IgG antibody (Abcam, cat#. 409120), which bind to rat FcRn, was used. The 1G3 antibody was produced and purified from mouse hybridoma cells (ATCC CRL2434). The cells were recovered by centrifugation at 4° C. and 4000 rpm for 5 minutes, after which the cells were washed once with binding buffer and resuspended in 100 μl of binding buffer. As FITC-conjugated secondary antibody, 1 μl of anti-human IgG goat antibody (Invitrogen, cat#. A11013) was added to the cells. In the case of the experiment using anti-rat FcRn mouse antibody, the anti-mouse IgG goat antibody (Invitrogen, cat#. A11001) was incubated with the cells on ice for 1 hour, and then the cells were recovered by centrifugation at 4° C. and 4000 rpm for 5 minutes, washed once with binding buffer, resuspended in 400 μl of binding buffer and analyzed by FACS to examine the cross-reactivity of the HL161 antibodies with rat FcRn (see FIG. 4). An experiment at a pH of 7.4 was performed using binding buffer at a pH of 7.4 in the same manner as the experiment using binding buffer at a pH of 6.0. The degree of the binding of each antibody to rat FcRn was presented as relative MFI based on human IgG.

Assay [3] concerns the target T3, mouse FcRn on 3T3-L1 cells (mouse, UniProt Q61559 22-365; P01887 21-119).
T3 construct: whole, on cells; also called NIH3T3L1
T3 sequence (looked up): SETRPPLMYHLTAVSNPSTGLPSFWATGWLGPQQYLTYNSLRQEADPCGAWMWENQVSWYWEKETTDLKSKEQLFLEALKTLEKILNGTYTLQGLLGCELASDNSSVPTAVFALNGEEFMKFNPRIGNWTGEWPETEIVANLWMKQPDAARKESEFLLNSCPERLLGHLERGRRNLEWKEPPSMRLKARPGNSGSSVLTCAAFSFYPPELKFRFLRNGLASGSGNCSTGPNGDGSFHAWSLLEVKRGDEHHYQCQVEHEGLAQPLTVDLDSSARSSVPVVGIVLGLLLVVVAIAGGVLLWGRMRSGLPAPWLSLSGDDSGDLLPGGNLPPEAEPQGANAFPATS
T3 sequence (b2m, looked up): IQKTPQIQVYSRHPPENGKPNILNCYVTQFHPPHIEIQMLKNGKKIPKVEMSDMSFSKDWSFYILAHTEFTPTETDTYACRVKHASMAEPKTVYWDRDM
The assay is described as follows: FACS on mouse FcRn-expressing 3T3-L1 cells at pH 6.0 and pH 7.4, FITC anti-human IgG goat antibody; MFI relative to hIgG. Here is the method: 3T3-L1 cells stably expressing mouse FcRn were cultured in 10% FCS DMEM medium, and then detached from the culture plate by trypsin treatment. The cells were washed three times with cold binding buffer (PBS, pH 6.0 10 mM EDTA), and then diluted in binding buffer at a concentration of 10⁵ cells/ml. 100 μl of the cell dilution was dispensed into each 1.5-ml tube in such a manner that each tube contained 10⁴ cells, and 1 μl of HL161 antibody (1 mg/ml) was added to the dispensed cells. Next, the cells were incubated on ice. As control antibodies, 1 μl of each of rabbit antibody (Santacruz, sc-66893) and human IgG (Abcam, cat#. 409120), which bind to mouse FcRn, was used. The cells were recovered by centrifugation at 4° C. and 4000 rpm for 5 minutes, after which the cells were washed once with binding buffer and resuspended in 100 μl of binding buffer. As FITC-conjugated secondary antibody, 1 μl of anti-human IgG goat antibody (Invitrogen, Cat*. A11013) was added to the cells. In the case of the experiment using anti-mouse FcRn rabbit antibody, the anti-rabbit antibody was incubated with the cells on ice for 1 hour, and then the cells were recovered by centrifugation at 4° C. and 700 g for 5 minutes, washed once with binding buffer, resuspended in 400 ul of binding buffer and analyzed by FACS to examine the cross-reactivity of the HL161 antibodies with mouse FcRn (see FIG. 4). An experiment at a pH of 7.4 was performed using binding buffer at a pH of 7.4 in the same manner as the experiment using binding buffer at a pH of 6.0. The degree of the binding of each antibody to mouse FcRn was presented as relative MFI based on human IgG.

T1 sequence (P55899 24-297, chain 1 of 2): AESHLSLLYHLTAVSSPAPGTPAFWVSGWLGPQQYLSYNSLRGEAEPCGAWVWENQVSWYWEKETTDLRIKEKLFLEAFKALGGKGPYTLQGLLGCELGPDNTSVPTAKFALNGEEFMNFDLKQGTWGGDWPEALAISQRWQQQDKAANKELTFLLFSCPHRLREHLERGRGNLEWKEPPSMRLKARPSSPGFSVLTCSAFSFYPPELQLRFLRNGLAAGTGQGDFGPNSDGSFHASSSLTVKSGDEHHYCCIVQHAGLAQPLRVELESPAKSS
T1 sequence (P61769 21-119, chain 2 of 2): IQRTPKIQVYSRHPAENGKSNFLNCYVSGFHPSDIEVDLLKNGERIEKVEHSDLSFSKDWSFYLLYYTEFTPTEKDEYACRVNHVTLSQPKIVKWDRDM

B1: HL161-10E (antibody, V domains shown)
VH: QVQLVESGGGLVQPGGSLRLSCAASGFRFSNFAMTWVRQAPGKGLEWVSTLSGSGGSIHHADSVKGRFTISRDNSKNTLYLQMNSLRAEDTAVYYCAKGPLRGQPAYLDPWGQGTLVTVSS
VL: SYELTQPLSVSMSPGQTARITCSGDALSKQYASWYQLKPGQAPVVVMYKDTERPSGIPDRFSGSSSGTTVTLTISGVQAEDEADYYCQSITDKSGTDVIFGGGTKLTVL
notes: Whole human IgG from pNATAB vectors
In assay [1], B1 registered a kon of 310000 M⁻¹ s⁻¹.

B2: HL161-1A (antibody, V domains shown)
VH: QVQLVQSGGGLVQPGRSLRLSCAASGFSFGEYGMHWVRQAPGKGLEWVSGVSWNSGSIAYADSVRGRFTISRDNSKNSLYLQMNSLRAEDTAVYYCARGRSMDVWGQGTTVTVSS
VL: NFMLTQPASVSGSPGQTITISCTGSSSDVGGYNYVSWYQQHPGKAPQLIIYDVTKRPSGVSNRFSGSKSGNSASLTISGLQAEDEADYYCSSYSSSTFYVFGTGTKVTVL
notes: as for B1
As for B2, the binding result in assay [2] and in assay [3] was “binds” throughout.

B3: HL161-11G (antibody, V domains shown)
VH: QMQLVESGGGVVQPGRSLRLSCVGSGFNFNSYGIHWVRQAPGKGLEWVGGIFYDGSQVKYADSVKGRVSISRDNSKNTAYLQMNSLRAEDTAVYYCARRNLLDYWGQGTVVTVSS
VL: NFMLTQPASVSGSPGQSITISCTGSSSDVGGYNYVSWYQQHPGKAPQLIIYDVTKRPSGVSNRFSGSKSGNSASLTISGLQAEDEADYYCSSYSSSTFYVFGTGTKVTVL
notes: Whole human IgG from pNATAB vectors; also called h1161-11G
B3: the binding result in assay [2] and in assay [3] was “binds” throughout.

As a reminder, the kon is the second-order rate constant of association. A higher kon goes with faster complex formation.

Source of the values: patent publication US20160137713A1 (HANALL BIOPHARMA, published 2016).
